Experiments:
[1] = molecular target: T1, biotinylated interleukin 8 (IL8-biotin) (human, UniProt P10145 21-99, reacted with biotin-XX-NHS ester (1 mM); labelled residues not stated); experiment: fraction of Fab bound by a large excess of biotin-IL-8, removed on avidin magnetic latex
T1 construct: mature; also called IL-8 labeled with biotin; biotinylated IL-8
T1 sequence: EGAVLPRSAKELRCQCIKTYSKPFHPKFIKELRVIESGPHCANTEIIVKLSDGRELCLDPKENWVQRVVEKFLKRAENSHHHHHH

[2] = molecular target: T1, biotinylated interleukin 8 (IL8-biotin); experiment: solution equilibrium with 1e-10 M biotin-IL-8, B/F vs B plot, free Fab by sandwich ELISA
Method: The equilibrium binding constants of individual monoclonal antibodies were determined by analysis of the total and free antibody concentrations after a binding equilibrium was established in the presence of biotinylated IL-8 at 10⁻¹⁰ M in a 1% solution of bovine serum albumin buffered at pH 8.0. […] The supernatant solution was removed from the microtiter wells containing the magnetic particles and the antibody concentration was determined. The concentration of total antibody added to the individual wells was determined by quantifying the antibody in a sample that was not mixed with IL-8. […] When determining the concentration of total antibody in an equilibrium mixture, the antibody concentration is the amount of total antibody in the mixture determined from the assay described below multiplied by the immunoreactive fraction. Similarly, when calculating the free antibody in an equilibrium mixture after the removal of IL-8, the non-immunoreactive fraction of antibody is subtracted from the free antibody concentration determined by the assay described below. The bound fraction, B, is determined by subtracting the free immunoreactive antibody concentration in the mixture, F, from the total immunoreactive antibody concentration in the mixture. […]

B1: M1-10 (Fab)
heavy: QVQLVQSGGGLVHPGGSLRLSCEGSGFIFRNHPIHWVRQAPGKGLEWVSVSGIGGDTYYADSVKGRFSISRDNAKNSLYLQMNSLRAEDMAVYYCAREYYYGSGSYRVDYYYYGMDVWGQGTTVTVSSASTKGPSVFPLAPSSKSTSGGTAALGCLVKDYFPEPVTVSWNSGALTSGVHTFPAVLQSSGLYSLSSVVTVPSSSLGTQTYICNVNHKPSNTKVDKKAEPKSHHHHHH
light: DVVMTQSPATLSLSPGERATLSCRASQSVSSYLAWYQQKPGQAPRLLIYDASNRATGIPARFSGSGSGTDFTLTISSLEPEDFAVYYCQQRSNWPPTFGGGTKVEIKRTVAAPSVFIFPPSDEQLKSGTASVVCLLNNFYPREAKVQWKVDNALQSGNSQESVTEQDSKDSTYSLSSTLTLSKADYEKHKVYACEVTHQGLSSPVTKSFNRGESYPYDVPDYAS
notes: also called M1_10H; M1_10L
% Immunoreactive Protein [1]: 90%

B2: M1-21 (Fab)
heavy: QVQLVQSGGGVVQPGKSLRLSCAASGFTFSYYGMHWVRQVPGKGLEWVAAVWYDGSTTYSPDSVKGRFTISRDDSKNTLYLQMSSLRAEDTAVYYCARDRVGLFDYWGQGTLVTVSSASTKGPSVFPLAPSSKSTSGGTAALGCLVKDYFPEPVTVSWNSGALTSGVHTFPAVLQSSGLYSLSSVVTVPSSSLGTQTYICNVNHKPSNTKVDKKAEPKSHHHHHH
light: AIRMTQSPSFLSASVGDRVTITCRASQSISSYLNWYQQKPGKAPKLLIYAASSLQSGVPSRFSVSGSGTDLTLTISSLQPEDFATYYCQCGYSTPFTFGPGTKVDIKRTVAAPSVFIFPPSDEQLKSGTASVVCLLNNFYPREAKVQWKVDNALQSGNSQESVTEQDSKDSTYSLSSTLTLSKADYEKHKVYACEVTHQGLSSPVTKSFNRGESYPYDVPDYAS
notes: also called M1_21H; M1_21L
Ka [2]: 6.6e+10 M⁻¹ | % Immunoreactive Protein [1]: 67%

From patent publication US20070111259A1 (BIOSITE, published 2007)
